# Patent US20190338002A1 (Pieris, published 2019)
# B1: tag-free lipocalin mutein SEQ ID NO: 87 (designed binder)
# chain: GQDSTSDLIPAPPLSKVPLQQNFQDNQFQGKWYVVGWAGNTLLREDKDPIKMQAMIYELKEDKSYNVTWVYFADKKINYHIETFVPGSQPGEFTLGTIKSYPGETPILVRVVSTNYNQHAMVFFKGVNQNREIFEIVLYGRTKELTNELKENFIRFSKSLGLPENHIVFPVPIDQEIDG
# notes: biotinylated by NHS chemistry for capture in SPR; also called tag-free mutein 87
# B2: lipocalin mutein SEQ ID NO: 14 (designed binder)
# chain: QDSTSDLIPAPPLSKVPLQQNFQDNQFHGKWYVVGRAGNDALREDKDPEKMEATIYELKEDKSYNVTDVGFVQKKCMYVIHTFVPGSQPGEFTLGNIKSYPGVTSALVRVVSTNYNQHAMVFFKLVKQNRELFEITLYGRTKELTSELKENFIRFSKSLGLPENHIVFPVPIDQCIDGSAWSHPQFEK
# notes: biotinylated by NHS chemistry for capture in SPR
# B3: lipocalin mutein SEQ ID NO: 17 (designed binder)
# chain: QDSTSDLIPAPPLSKVPLQQNFQDNQFHGKWYVVGRAGNDVLREDKDPEKMEATIYELKEDKSYNVTDVGFVQKRCMYVTHTFVPGSQPGEFTLGNIESYPGVTSALVRVVSTDYNQHAMVFVKLVKQNRELFEITLYGRTKELTSELKENFIRFSKSLGLPENHIVFPVPIDQCIDGSAWSHPQFEK
# notes: as for B2
# B4: lipocalin mutein SEQ ID NO: 20 (designed binder)
# chain: QDSTSDLIPAPPLSKVPLQQNFQDNQFHGKWYVVGRAGNDTLRKDKDPEKMEATIYELKEDKSYNVTDVGFVQKKCMYVIHTFVPGSQPGEFTLGNIKSYPGVTSALVRVVSTNYNQHAMVFVKLVKQNRELFEITLYGRTKELTSELKENFIRFSKSLGLPENHIVFPVPIDQCIDGSAWSHPQFEK
# notes: as for B2
# B5: tag-free lipocalin mutein SEQ ID NO: 88 (designed binder)
# chain: GQDSTSDLIPAPPLSKVPLQQNFQDNQFHGKWYVVGRAGNDVLREDKDPEKMEATIYELKEDKSYNVTDVGFVQKRCMYVTHTFVPGSQPGEFTLGNIESYPGVTSALVRVVSTDYNQHAMVFVKLVKQNRELFEITLYGRTKELTSELKENFIRFSKSLGLPENHIVFPVPIDQCIDG
# notes: biotinylated by NHS chemistry for capture in SPR; also called tag-free mutein 88
# B6: tag-free lipocalin mutein SEQ ID NO: 91 (designed binder)
# chain: GQDSTSDLIHAPPLSKVPLQQNFQDNQFHGKWYVVGRAGNDVLREDKDPEKMEATIYELKEDKSYNVTDVGFVQKRCMYVTHTFVPGSQPGEFTLGNIESYPGVTSALVRVVSTDYNQHAMVFVKLVKQNRELFEITLYGRTKELTSELKENFIRFSKSLGLPENHIVFPVPIDQCIDG
# notes: biotinylated by NHS chemistry for capture in SPR; also called tag-free mutein 91
# B7: tag-free lipocalin mutein SEQ ID NO: 92 (designed binder)
# chain: GQDSTSDLKPAPPLSKVPLQQNFQDNQFHGKWYVVGRAGNDVLREDKDPEKMEATIYELKEDKSYQVTDVGFVQKRCMYVTHTFVPGSQPGEFTLGNIESYPGVTSALVRVVSTDYNQHAMVFVKLVKQNRELFEITLYGRTKELTSELKENFIRFSKSLGLPENHIVFPVPIDQCIDD
# notes: biotinylated by NHS chemistry for capture in SPR; also called tag-free mutein 92
# B8: tag-free lipocalin mutein SEQ ID NO: 90 (designed binder)
# chain: GQDSTSDLKPAPPLSKVPLQQNFQDNQFHGKWYVVGRAGNDVLREDKDPEKMEATIYELKEDKSYNVTDVGFVQKRCMYVTHTFVPGSQPGEFTLGNIESYPGVTSALVRVVSTDYNQHAMVFVKLVKQNRELFEITLYGRTKELTSELKENFIRFSKSLGLPENHIVFPVPIDQCIDG
# notes: biotinylated by NHS chemistry for capture in SPR; also called tag-free mutein 90
# B9: tag-free lipocalin mutein SEQ ID NO: 89 (designed binder)
# chain: GQDSTSDLIPAPPLSKVPLQQNFQDNQFHGKWYVVGRAGNDVLREDKDPEKMEATIYELKEDKSYQVTDVGFVQKRCMYVTHTFVPGSQPGEFTLGNIESYPGVTSALVRVVSTDYNQHAMVFVKLVKQNRELFEITLYGRTKELTSELKENFIRFSKSLGLPENHIVFPVPIDQCIDD
# notes: biotinylated by NHS chemistry for capture in SPR; also called tag-free mutein 89
# B10: tag-free lipocalin mutein SEQ ID NO: 93 (designed binder)
# chain: GQDSTSDLIHAPPLSKVPLQQNFQDNQFHGKWYVVGRAGNDVLREDKDPEKMEATIYELKEDKSYQVTDVGFVQKRCMYVTHTFVPGSQPGEFTLGNIESYPGVTSALVRVVSTDYNQHAMVFVKLVKQNRELFEITLYGRTKELTSELKENFIRFSKSLGLPENHIVFPVPIDQCIDD
# notes: biotinylated by NHS chemistry for capture in SPR; also called tag-free mutein 93
# Key:
# [1] = biological target: T1, human alpha CGRP (SEQ ID NO: 80) (human, not fully specified); assay: cell-based or functional assay
# T1 peptide: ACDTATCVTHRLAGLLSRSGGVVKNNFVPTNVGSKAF
# [2] = biological target: T1, human alpha CGRP (SEQ ID NO: 80); assay: SPR, Biacore T200, 37 C; biotinylated mutein captured, human alpha CGRP analyte
# Method: (§1) The Biotin CAPture Kit (GE Healthcare) was used to immobilized biotinylated lipocalin muteins to a chip surface. Muteins were biotinylated using standard NHS chemistry. Fifty-fold diluted Biotin CAPture Reagent (streptavidin conjugated with ss-DNA oligo) was captured on a Sensor Chip CAP with the pre-immobilized complementary ss-DNA oligo. Thereafter, biotinylated muteins at 200 nM were applied for 60 s at a flow rate of 10 μL/min.
# The dilutions were injected with association times of 600 s and dissociation times of 1800 s. Regeneration of the chip surface was achieved by injecting 6 M Guanidinium-HCl+0.25 M NaOH (120 s) with a flow rate of 10 μL/min, followed by injecting 30% acetonitrile+0.25 M NaOH (120 s) with a flow rate of 10 μL/min. Injection of regeneration solutions was followed by an extra wash step with HBS-EP+ running buffer and a stabilization period of 60 s.
# (§2) The data were double-referenced by subtraction of the corresponding signals measured for the control channel (loaded with Biotin CAPture reagent only) and by subtraction of buffer injections from the binding responses. Association rate constant ka and dissociation rate constant kd for the binding reaction were determined using Biacore T200 Evaluation Software version 1.0 for data processing and kinetic fitting. The data were globally fit with 1:1 binding model.
# [3] = biological target: T1, human alpha CGRP (SEQ ID NO: 80); assay: cell-based or functional assay
# [4] = biological target: T2, human beta CGRP (SEQ ID NO: 81) (human, not fully specified); assay: cell-based or functional assay
# T2 peptide: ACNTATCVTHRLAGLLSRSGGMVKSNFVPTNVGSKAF
# [5] = biological target: T3, rat alpha CGRP (SEQ ID NO: 82) (rat); assay: cell-based or functional assay
# T3 peptide: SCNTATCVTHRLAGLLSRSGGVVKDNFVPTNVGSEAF
# [6] = biological target: T4, rat beta CGRP (SEQ ID NO: 83) (rat, not fully specified); assay: cell-based or functional assay
# T4 peptide: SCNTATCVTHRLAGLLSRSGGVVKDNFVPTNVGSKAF
# [7] = biological target: T1, human alpha CGRP (SEQ ID NO: 80); assay: SPR, 37 C, mutein captured, CGRP analyte
# Method: as §1, with “to immobilize” for “to immobilized”, “chemistry. Undiluted” for “chemistry. Fifty-fold diluted”, “at 1 μg/mL” for “at 200 nM”, “for 300” for “for 60”, “of 5” for “of 10”
# (§3) CGRP species were applied in three concentrations of 30 nM, 3 nM and 0.3 nM at a flow rate of 30 μL/min or in a single concentration of 25 nM per cycle as shown in FIG. 2. The dilutions were injected with association times of 180 s and dissociation times of 5400 sec to obtain ka and kd information. Regeneration of the chip surface was achieved by injecting 6 M Guanidinium-HCl+0.25 M NaOH (120 s) with a flow rate of 10 μL/min. Injection of regeneration solutions was followed by an extra wash step with HBS-EP+(1×; BR-1006-69; GE Healthcare) running buffer and a stabilization period of 120 s.
# as §2, with “V2.0” for “version 1.0”
# [8] = biological target: T2, human beta CGRP (SEQ ID NO: 81); assay: SPR, 37 C, mutein captured, CGRP analyte
# Method: as §1, with “to immobilize” for “to immobilized”, “chemistry. Undiluted” for “chemistry. Fifty-fold diluted”, “at 1 μg/mL” for “at 200 nM”, “for 300” for “for 60”, “of 5” for “of 10”
# as §3
# as §2, with “V2.0” for “version 1.0”
# [9] = biological target: T3, rat alpha CGRP (SEQ ID NO: 82); assay: SPR, 37 C, mutein captured, CGRP analyte
# Method: as §1, with “to immobilize” for “to immobilized”, “chemistry. Undiluted” for “chemistry. Fifty-fold diluted”, “at 1 μg/mL” for “at 200 nM”, “for 300” for “for 60”, “of 5” for “of 10”
# as §3
# as §2, with “V2.0” for “version 1.0”
# [10] = biological target: T4, rat beta CGRP (SEQ ID NO: 83); assay: SPR, 37 C, mutein captured, CGRP analyte
# Method: as §1, with “to immobilize” for “to immobilized”, “chemistry. Undiluted” for “chemistry. Fifty-fold diluted”, “at 1 μg/mL” for “at 200 nM”, “for 300” for “for 60”, “of 5” for “of 10”
# as §3
# as §2, with “V2.0” for “version 1.0”
# [11] = biological target: T1, human alpha CGRP (SEQ ID NO: 80); assay: SPR Biacore 37 °C, mutein captured as ligand, sample PL1827 (ha CGRP) injected, 1:1 fit; repeat run 130903_NAN-DS-058 (not the run of Table 2) [contd]
# Method: as §1, with “to immobilize” for “to immobilized”, “chemistry. Undiluted” for “chemistry. Fifty-fold diluted”, “at 1 μg/mL” for “at 200 nM”, “for 300” for “for 60”, “of 5” for “of 10”
# as §3
# as §2, with “V2.0” for “version 1.0”
# [12] = biological target: T1, human alpha CGRP (SEQ ID NO: 80); assay: SPR as in Example 5
# Method: as §1, with “to immobilize” for “to immobilized”, “chemistry. Undiluted” for “chemistry. Fifty-fold diluted”, “at 1 μg/mL” for “at 200 nM”, “for 300” for “for 60”, “of 5” for “of 10”
# as §3
# [13] = biological target: T2, human beta CGRP (SEQ ID NO: 81); assay: SPR as in Example 5
# Method: as §1, with “to immobilize” for “to immobilized”, “chemistry. Undiluted” for “chemistry. Fifty-fold diluted”, “at 1 μg/mL” for “at 200 nM”, “for 300” for “for 60”, “of 5” for “of 10”
# as §3
# [14] = biological target: T1, human alpha CGRP (SEQ ID NO: 80); assay: cell-based or functional assay
# [15] = biological target: T2, human beta CGRP (SEQ ID NO: 81); assay: cell-based or functional assay
Binder,cAMP assay IC50 [1],Kd [2],"IC50, CGRP-induced cAMP production, SK-N-MC cells [3]","IC50, CGRP-induced cAMP production, SK-N-MC cells [4]","IC50, CGRP-induced cAMP production, L6 cells [5]","IC50, CGRP-induced cAMP production, L6 cells [6]",Kd [7],koff [7],kon [7],Kd [8],koff [8],kon [8],Kd [9],koff [9],kon [9],Kd [10],koff [10],kon [10],also measured
B1,0.66 nM,0.081 nM,,,,,,,,,,,,,,,,,
B2,,,0.15 nM,1.5 nM,0.12 nM,0.09 nM,0.055 nM,0.000141 s⁻¹,2.56e+06 M⁻¹ s⁻¹,0.031 nM,0.000141 s⁻¹,4.56e+06 M⁻¹ s⁻¹,0.29 nM,0.000339 s⁻¹,1.19e+06 M⁻¹ s⁻¹,0.107 nM,0.000181 s⁻¹,1.69e+06 M⁻¹ s⁻¹,koff [11]: 0.000183 s⁻¹; kon [11]: 3.44e+06 M⁻¹ s⁻¹
B3,,,0.11 nM,0.23 nM,0.06 nM,0.11 nM,0.011 nM,3.66e-05 s⁻¹,3.34e+06 M⁻¹ s⁻¹,0.001 nM,1.44e-05 s⁻¹,1.36e+07 M⁻¹ s⁻¹,0.031 nM,8.44e-05 s⁻¹,2.75e+06 M⁻¹ s⁻¹,0.012 nM,5.99e-05 s⁻¹,5.18e+06 M⁻¹ s⁻¹,"Kd [12]: 0.02 nM; Kd [13]: 0.003 nM; cAMP assay IC50, SK-N-MC cells [14]: 0.09 nM; cAMP assay IC50, SK-N-MC cells [15]: 0.13 nM"
B4,,,0.14 nM,0.17 nM,0.08 nM,0.11 nM,0.012 nM,1.75e-05 s⁻¹,1.45e+06 M⁻¹ s⁻¹,0.004 nM,7.89e-06 s⁻¹,2.18e+06 M⁻¹ s⁻¹,0.028 nM,2.41e-05 s⁻¹,867000 M⁻¹ s⁻¹,0.013 nM,1.84e-05 s⁻¹,1.38e+06 M⁻¹ s⁻¹,
B5,0.17 nM,0.008 nM,,,,,,,,,,,,,,,,,
B6,0.16 nM,0.01 nM,,,,,,,,,,,,,,,,,
B7,0.18 nM,0.01 nM,,,,,,,,,,,,,,,,,
B8,0.16 nM,0.012 nM,,,,,,,,,,,,,,,,,
B9,0.17 nM,0.006 nM,,,,,,,,,,,,,,,,,
B10,0.13 nM,0.011 nM,,,,,,,,,,,,,,,,,
